Reference: PMC9265643
Where “and” joins values, the source holds several entries; their conditions need not be identical. Equal entries are not always repeated.

Experiments:
[1] = molecular target: myristoylated Gtα/Giα chimera (European robin cone Gtα with residues 220-298 replaced by the corresponding region of bovine Giα1) (European robin | bovine); assay: SPR; Biacore 3000; Gtα/Giα chimera (myristoylated or non-myristoylated) amine-coupled on CM5 chip, ErCry variant injected; 10 mM HEPES/NaOH pH 7.4, 150 mM NaCl, 10 mM MgCl2, 0.005% Tween-20, 3.4 mM EDTA; control surface Ulp1 (activation/deactivation cycle for ErCry1a); global fit to a two-state-reaction model, apparent KD = kd1/ka1
[2] = molecular target: ErGtα-mRuby3 (wildtype European robin cone G protein α-subunit with mRuby3 fused to its C-terminus) (European robin); assay: FRET or BRET; acceptor photobleaching FRET in transiently co-transfected QNR/K2 quail neuroretina cells, fixed 48 h after transfection; donor mClover3, acceptor mRuby3; FRET efficiency in percent
[3] = molecular target: non-myristoylated Gtα/Giα chimera (European robin cone Gtα with residues 220-298 replaced by the corresponding region of bovine Giα1), His6-SUMO tag removed (European robin | bovine); assay: SPR; Biacore 3000; Gtα/Giα chimera (myristoylated or non-myristoylated) amine-coupled on CM5 chip, 500 nM ErCry4a-497 injected; 10 mM HEPES/NaOH pH 7.4, 150 mM NaCl, 10 mM MgCl2, 0.005% Tween-20, 3.4 mM EDTA; fit to a Langmuir binding model, apparent KD
[4] = molecular target: myristoylated Gtα/Giα chimera (European robin cone Gtα with residues 220-298 replaced by the corresponding region of bovine Giα1) (European robin | bovine); assay: as above
[5] = molecular target: non-myristoylated Gtα/Giα chimera (European robin cone Gtα with residues 220-298 replaced by the corresponding region of bovine Giα1), His6-SUMO tag removed (European robin | bovine); assay: as above; remark: listed apart in the source
[6] = molecular target: rhodopsin (dark-adapted) (Bos taurus) (UniProt P02699); assay: SPR; settings: cited from earlier work
[7] = molecular target: non-myristoylated Gtα/Giα chimera (European robin cone Gtα with residues 220-298 replaced by the corresponding region of bovine Giα1), His6-SUMO tag removed (European robin | bovine); assay: SPR; Biacore 3000; Gtα/Giα chimera (myristoylated or non-myristoylated) amine-coupled on CM5 chip, ErCry variant injected; 10 mM HEPES/NaOH pH 7.4, 150 mM NaCl, 10 mM MgCl2, 0.005% Tween-20, 3.4 mM EDTA; control surface Ulp1 (activation/deactivation cycle for ErCry1a); global fit to a two-state-reaction model, apparent KD = kd1/ka1
[8] = molecular target: non-myristoylated Gtα/Giα chimera (European robin cone Gtα with residues 220-298 replaced by the corresponding region of bovine Giα1), His6-SUMO tag removed (European robin | bovine); assay: as above; remark: listed apart in the source

Chain of UniProt P02699 (P02699 whole entry, the tested form may be a part): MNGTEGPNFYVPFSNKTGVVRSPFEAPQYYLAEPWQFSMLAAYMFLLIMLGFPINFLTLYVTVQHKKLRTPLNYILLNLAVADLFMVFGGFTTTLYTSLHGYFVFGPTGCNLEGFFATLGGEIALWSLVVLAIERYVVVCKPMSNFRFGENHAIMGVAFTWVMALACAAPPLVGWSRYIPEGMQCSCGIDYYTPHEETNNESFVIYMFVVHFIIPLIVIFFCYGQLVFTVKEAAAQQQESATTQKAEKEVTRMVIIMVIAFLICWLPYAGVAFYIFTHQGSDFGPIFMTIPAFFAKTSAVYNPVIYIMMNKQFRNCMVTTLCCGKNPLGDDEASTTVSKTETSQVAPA

For “European robin cryptochrome 1b (ErCry1b), apo form without bound FAD (natural protein)”, the Kd [1] was 1530 nM, the ka1 (two-state-reaction model, forward reaction rate) [1] was 21700 M⁻¹ s⁻¹ and the kd1 (two-state-reaction model, backward reaction rate) [1] was 0.0332 s⁻¹.

Substance “mClover3-ErCry4 (ErCry4a with mClover3 fused to its N-terminus) (natural protein)” has an FRET efficiency [2] of 49.7%.

With “mClover3-ErCry4, truncated after aa 497 (domain or fragment)” the FRET efficiency [2] was 49.5%.

Substance “European robin cryptochrome 1a (ErCry1a), apo form without bound FAD (natural protein)” has a Kd [1] of 400 nM, a ka1 (two-state-reaction model, forward reaction rate) [1] of 130000 M⁻¹ s⁻¹ and a kd1 (two-state-reaction model, backward reaction rate) [1] of 0.0527 s⁻¹.

With “C-terminally truncated European robin cryptochrome 4a (ErCry4a-497) (domain or fragment)” the Kd [3] was 360 nM, the Kd [4] was 200 nM and the koff [4] was 0.000915 s⁻¹. For the same substance, the kon [4] was 5350 M⁻¹ s⁻¹, the Kd [5] was 340 nM and the koff [5] was 0.00305 s⁻¹. It also gave a kon [5] of 6510 M⁻¹ s⁻¹.

For transducin (from UniProt P04695), the Kd [6] is given as 360 nM.

With “European robin cryptochrome 4a (ErCry4a), purified recombinant, as used in SPR (natural protein)” the Kd [7] was 35 nM, the Kd [1] was 200 nM and 290 nM and the ka1 (two-state-reaction model, step A + B to AB) [1] was 3320 M⁻¹ s⁻¹. It also gave a kd1 (two-state-reaction model, step AB to A + B) [1] of 0.000674 s⁻¹, a Kd [8] of 32 nM and a ka1 (two-state-reaction model, step A + B to AB) [8] of 343000 M⁻¹ s⁻¹. The kd1 (two-state-reaction model, step AB to A + B) [8] was 0.011 s⁻¹.
